Results taken from publication PMC12480940.

Key:
Experiment in all cases: SPR; Biacore T200, 25 °C, pH 5.5 (177 mM phosphate, 85 mM NaCl, 0.005% TWEEN-20); FIX-HSA variants amine-coupled (200 RU) on CM5; soluble His-tagged hFcRn (15.6-2000.0 nM for HSAWT, 1.95-62.5 nM for HSAQMP) or mFcRn (7.8-8000.0 nM for HSAWT, 3.9-500 nM for HSAQMP) injected; 1:1 Langmuir model
PaduaKR-HSAQMP (human) = PaduaKR-HSAQMP (human) (UniProt P02768)
FIXKR-HSAWT (human) = FIXKR-HSAWT (human) (UniProt P02768)
FIXKA-HSAWT (human) = FIXKA-HSAWT (human) (UniProt P02768)
PaduaKA-HSAQMP (human) = PaduaKA-HSAQMP (human) (UniProt P02768)
Padua-HSAQMP (human) = target: Padua-HSAQMP (human)

Substance	Kd (PaduaKR-HSAQMP (human)) [nM]	koff (PaduaKR-HSAQMP (human)) [s⁻¹]	Kd (FIXKR-HSAWT (human)) [nM]	koff (FIXKR-HSAWT (human)) [s⁻¹]	Kd (FIXKA-HSAWT (human)) [nM]	koff (FIXKA-HSAWT (human)) [s⁻¹]	Kd (PaduaKA-HSAQMP (human)) [nM]	koff (PaduaKA-HSAQMP (human)) [s⁻¹]	Kd (Padua-HSAQMP (human)) [nM]	koff (Padua-HSAQMP (human)) [s⁻¹]
soluble truncated His-tagged human neonatal Fc receptor (from UniProt P55899 24-297; P61769 21-119)	0.3	7e-05	190	0.00827	177	0.00769	0.2	6e-05	–	–
soluble truncated His-tagged mouse neonatal Fc receptor (from UniProt Q61559 22-297; P01887 21-119)	54.9	0.00429	–	–	–	–	51.7	0.0028	44.6	0.00512
